Data set [1] concerns the molecule itself. Briefly: co-IP.
Data set [2] deals with the molecule itself. Briefly: SDS-PAGE without reducing reagent.

2 proteins from PMC6152903 (Cell reports, 2018) can be followed below.

B1: FLAG-ZMYND8 (Sf9) (natural protein)
chain: MHPQSLAEEEIKTEQEVVEGMDISTRSKDPGSAERTAQKRKFPSPPHSSNGHSPQDTSTSPIKKKKKPGLLNSNNKEQSELRHGPFYYMKQPLTTDPVDVVPQDGRNDFYCWVCHREGQVLCCELCPRVYHAKCLRLTSEPEGDWFCPECEKITVAECIETQSKAMTMLTIEQLSYLLKFAIQKMKQPGTDAFQKPVPLEQHPDYAEYIFHPMDLCTLEKNAKKKMYGCTEAFLADAKWILHNCIIYNGGNHKLTQIAKVVIKICEHEMNEIEVCPECYLAACQKRDNWFCEPCSNPHPLVWAKLKGFPFWPAKALRDKDGQVDARFFGQHDRAWVPINNCYLMSKEIPFSVKKTKSIFNSAMQEMEVYVENIRRKFGVFNYSPFRTPYTPNSQYQMLLDPTNPSAGTAKIDKQEKVKLNFDMTASPKILMSKPVLSGGTGRRISLSDMPRSPMSTNSSVHTGSDVEQDAEKKATSSHFSASEESMDFLDKSTASPASTKTGQAGSLSGSPKPFSPQLSAPITTKTDKTSTTGSILNLNLDRSKAEMDLKELSESVQQQSTPVPLISPKRQIRSRFQLNLDKTIESCKAQLGINEISEDVYTAVEHSDSEDSEKSDSSDSEYISDDEQKSKNEPEDTEDKEGCQMDKEPSAVKKKPKPTNPVEIKEELKSTSPASEKADPGAVKDKASPEPEKDFSEKAKPSPHPIKDKLKGKDETDSPTVHLGLDSDSESELVIDLGEDHSGREGRKNKKEPKEPSPKQDVVGKTPPSTTVGSHSPPETPVLTRSSAQTSAAGATATTSTSSTVTVTAPAPAATGSPVKKQRPLLPKETAPAVQRVVWNSSSKFQTSSQKWHMQKMQRQQQQQQQQNQQQQPQSSQGTRYQTRQAVKAVQQKEITQSPSTSTITLVTSTQSSPLVTSSGSMSTLVSSVNADLPIATASADVAADIAKYTSKMMDAIKGTMTEIYNDLSKNTTGSTIAEIRRLRIEIEKLQWLHQQELSEMKHNLELTMAEMRQSLEQERDRLIAEVKKQLELEKQQAVDETKKKQWCANCKKEAIFYCCWNTSYCDYPCQQAHWPEHMKSCTQSATAPQQEADAEVNTETLNKSSQGSSSSTQSAPSETASASKEKETSAEKSKESGSTLDLSGSRETPSSILLGSNQGSDHSRSNKSSWSSSDEKRGSTRSDHNTSTSTKSLLPKESRLDTFWD
On to B1, for which, in data set [1], the “stoichiometry N” value was found to be 2.

B2: endogenous ZMYND8 (natural protein)
chain: MDISTRSKDPGSAERTAQKRKFPSPPHSSNGHSPQDTSTSPIKKKKKPGLLNSNNKEQSELRHGPFYYMKQPLTTDPVDVVPQDGRNDFYCWVCHREGQVLCCELCPRVYHAKCLRLTSEPEGDWFCPECEKITVAECIETQSKAMTMLTIEQLSYLLKFAIQKMKQPGTDAFQKPVPLEQHPDYAEYIFHPMDLCTLEKNAKKKMYGCTEAFLADAKWILHNCIIYNGGNHKLTQIAKVVIKICEHEMNEIEVCPECYLAACQKRDNWFCEPCSNPHPLVWAKLKGFPFWPAKALRDKDGQVDARFFGQHDRAWVPINNCYLMSKEIPFSVKKTKSIFNSAMQEMEVYVENIRRKFGVFNYSPFRTPYTPNSQYQMLLDPTNPSAGTAKIDKQEKVKLNFDMTASPKILMSKPVLSGGTGRRISLSDMPRSPMSTNSSVHTGSDVEQDAEKKATSSHFSASEESMDFLDKSTASPASTKTGQAGSLSGSPKPFSPQLSAPITTKTDKTSTTGSILNLNLDRSKAEMDLKELSESVQQQSTPVPLISPKRQIRSRFQLNLDKTIESCKAQLGINEISEDVYTAVEHSDSEDSEKSDSSDSEYISDDEQKSKNEPEDTEDKEGCQMDKEPSAVKKKPKPTNPVEIKEELKSTSPASEKADPGAVKDKASPEPEKDFSEKAKPSPHPIKDKLKGKDETDSPTVHLGLDSDSESELVIDLGEDHSGREGRKNKKEPKEPSPKQDVVGKTPPSTTVGSHSPPETPVLTRSSAQTSAAGATATTSTSSTVTVTAPAPAATGSPVKKQRPLLPKETAPAVQRVVWNSSSKFQTSSQKWHMQKMQRQQQQQQQQNQQQQPQSSQGTRYQTRQAVKAVQQKEITQSPSTSTITLVTSTQSSPLVTSSGSMSTLVSSVNADLPIATASADVAADIAKYTSKMMDAIKGTMTEIYNDLSKNTTGSTIAEIRRLRIEIEKLQWLHQQELSEMKHNLELTMAEMRQSLEQERDRLIAEVKKQLELEKQQAVDETKKKQWCANCKKEAIFYCCWNTSYCDYPCQQAHWPEHMKSCTQSATAPQQEADAEVNTETLNKSSQGSSSSTQSAPSETASASKEKETSAEKSKESGSTLDLSGSRETPSSILLGSNQGSDHSRSNKSSWSSSDEKRGSTRSDHNTSTSTKSLLPKESRLDTFWD
Consider B2, for which the “stoichiometry N” value in data set [2] came to 2.

Usually stoichiometry N stands for a count of units in the complex or per binding partner.
